Data as given in publication PMC5630700 (Frontiers in Immunology, 2017).

Target: MARV Musoke NP tagged with FLAG at the N-terminus and His6 at the C-terminus (Wt) (Marburg virus Musoke-80, UniProt P27588)
Experiment: far-Western, overlay or dot blot
Details: one partner purified

Sequence of MARV Musoke NP tagged with FLAG at the N-terminus and His6 at the C-terminus (Wt) (P27588 whole entry): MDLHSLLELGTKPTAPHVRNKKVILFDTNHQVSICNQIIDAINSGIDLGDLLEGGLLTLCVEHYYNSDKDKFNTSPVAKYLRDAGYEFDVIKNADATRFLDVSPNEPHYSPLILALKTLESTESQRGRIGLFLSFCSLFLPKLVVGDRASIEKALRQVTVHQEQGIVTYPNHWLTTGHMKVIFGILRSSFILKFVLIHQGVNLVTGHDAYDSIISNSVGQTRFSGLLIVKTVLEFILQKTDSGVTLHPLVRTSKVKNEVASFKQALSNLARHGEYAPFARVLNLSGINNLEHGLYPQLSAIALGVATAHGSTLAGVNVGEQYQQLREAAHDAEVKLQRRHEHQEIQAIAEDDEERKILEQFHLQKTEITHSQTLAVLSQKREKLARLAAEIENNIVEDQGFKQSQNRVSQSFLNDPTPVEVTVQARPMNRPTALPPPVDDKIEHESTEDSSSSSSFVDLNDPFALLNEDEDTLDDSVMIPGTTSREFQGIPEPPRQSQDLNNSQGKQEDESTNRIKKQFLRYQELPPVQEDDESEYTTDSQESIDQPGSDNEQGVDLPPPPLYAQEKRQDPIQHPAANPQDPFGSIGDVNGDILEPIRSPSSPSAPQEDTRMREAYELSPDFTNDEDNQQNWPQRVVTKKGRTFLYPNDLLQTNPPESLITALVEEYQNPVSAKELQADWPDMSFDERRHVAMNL

B1: sdAb D–alkaline phosphatase fusion protein (pecan16) (VHH)
VHH: KVKLQESGGGTVQAGGSLRLSCKASGFTFRSSAMGWYRRAPGQHRIFVGSFSRNEFKYADFAQGRFTISRDNAKNTVSLQMNHVIPEDTAVYYCHEDPYGMESLRYWGQGTQVTVSS
  binding result: binds
